Test results from PMC10593477 (Frontiers in Oncology, 2023).
Each block holds one binder with its values, some of them ahead of it.

Columns and labels:
recombinant uPAR-Biotin = biological target: T1, recombinant uPAR-Biotin (human, UniProt Q03405 23-305, biotin); experiment: BLI; BLItz; streptavidin biosensors coated with 16.7 μg/mL recombinant uPAR-Biotin; 400nM, 200nM and 100nM of VH, VH-Fc, DbTE, association 2 min; dissociation in DPBS 4 min; conditions: both partners purified
T1 construct: May be one of the bought proteins (uPAR-His or uPAR-Fc) after biotinylation

[1] = biological target: T2, Human uPAR-His recombinant protein (human, UniProt Q03405 23-305); experiment: ELISA; uPAR-His coated at 50 ng/well at 4°C overnight; 3-fold serially diluted binders 1 hour at 37°C; VH detected by anti-FLAG M2-HRP, VH-Fc or DbTE by HRP goat anti-human IgG1 Fc; conditions: both partners purified
T2 construct: also called recombinant human uPAR; CD87; source: bought: R&D system

[2] = biological target: the molecule itself; experiment: SEC; Superdex 200 Increase 10/300 GL; 200 μg of filtered antibody; DPBS, 0.5 mL/min; size from molecular weight calibration curves

T2 sequence (Q03405 23-305): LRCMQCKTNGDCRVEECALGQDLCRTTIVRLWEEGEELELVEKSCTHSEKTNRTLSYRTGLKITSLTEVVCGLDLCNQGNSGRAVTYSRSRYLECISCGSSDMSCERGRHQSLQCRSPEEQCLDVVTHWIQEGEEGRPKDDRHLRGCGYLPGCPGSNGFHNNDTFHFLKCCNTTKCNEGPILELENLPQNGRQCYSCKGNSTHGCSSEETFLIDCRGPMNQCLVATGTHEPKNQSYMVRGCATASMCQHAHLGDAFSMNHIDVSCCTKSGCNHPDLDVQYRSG
T1 sequence (Q03405 23-305): as above

Kd (recombinant uPAR-Biotin): 71.1 nM
koff (recombinant uPAR-Biotin): 0.0024 s⁻¹
kon (recombinant uPAR-Biotin): 33000 M⁻¹ s⁻¹
EC50 [1]: 6.6 ± 0.2 nM
B2: VH-Fc 115 (Fc fusion, human)
VH: EVQLVESGGGLVQPGGSLRLSCKGSGFTFGDYAIGWVRQAPGQRLEWIGWINTNSGSPKYAQGFTGRFTISRDNSKNTLYLQMNSLRAEDTAVYYCATDVVVPWGQGSQVTVSS
notes: VH cloned into the pcDNA-IgG1 Fc vector; source: Expi293, transiently transfected, purified by protein A resin; not shown: Fc (human IgG1), C-terminal, kept
stoichiometry N [2]: 2

Kd (recombinant uPAR-Biotin): 9.6 nM
koff (recombinant uPAR-Biotin): 0.0012 s⁻¹
kon (recombinant uPAR-Biotin): 120000 M⁻¹ s⁻¹
EC50 [1]: 64.3 ± 2.3 nM
B4: VH-Fc 3 (Fc fusion, human)
VH: EVQLVESGGGLVQPGGSLRLSCAASGFTFSRYWMSWVRQAPGKALEWIGEINHSGSTNYNPSLKSLVTISRDNSKNTLYLQMNSLRAEDTATYYCARSLVPALSYYYYYGMDVWGQGTTVTVSS
notes: VH 3 domain, as m1; VH cloned into the pcDNA-IgG1 Fc vector; source: Expi293, transiently transfected, purified by protein A resin; not shown: Fc (human IgG1), C-terminal, kept

Continued, binder first:

B1: VH 115 (VHH)
VHH: EVQLVESGGGLVQPGGSLRLSCKGSGFTFGDYAIGWVRQAPGQRLEWIGWINTNSGSPKYAQGFTGRFTISRDNSKNTLYLQMNSLRAEDTAVYYCATDVVVPWGQGSQVTVSS
notes: Human single VH domain antibody (not a camelid VHH); source: E.coli TopF expression system, purified on Ni-NTA columns
Kd (recombinant uPAR-Biotin): 1.7 nM
koff (recombinant uPAR-Biotin): 3.6e-05 s⁻¹
kon (recombinant uPAR-Biotin): 21000 M⁻¹ s⁻¹
EC50 [1]: 34.2 ± 3.5 nM
stoichiometry N [2]: 2

B3: VH 3 (VHH)
VHH: EVQLVESGGGLVQPGGSLRLSCAASGFTFSRYWMSWVRQAPGKALEWIGEINHSGSTNYNPSLKSLVTISRDNSKNTLYLQMNSLRAEDTATYYCARSLVPALSYYYYYGMDVWGQGTTVTVSS
notes: Human single VH domain antibody (not a camelid VHH); Monomeric by SEC; also called clone 3; anti-uPAR VH 3; source: E.coli TopF expression system, purified on Ni-NTA columns
Kd (recombinant uPAR-Biotin): 17.1 nM
koff (recombinant uPAR-Biotin): 0.0014 s⁻¹
kon (recombinant uPAR-Biotin): 79000 M⁻¹ s⁻¹
EC50 [1]: 12.1 ± 0.8 nM
